# Laboratory results as given in patent US20100081624.
# Tests used:
# [1] = system: T1, LxVPc1 peptide (synthetic peptide with the LxVP sequence of NFATc1)
# T1 sequence: DQYLAVPQHPYQWAK
# [2] = system: mutLxVPc1 peptide (LxVP motif from NFATc1 with the Leucine, Valine and Proline residues replaced by Alanine)
substance,measurement,setting,value
Calcineurin of the Biomol Green Calcineurin assay kit,phosphatase activity of CN on the RII phosphopeptide substrate,[1],severely blocked in vitro the phosphatase activity of CN on its physiological substrate
same,phosphatase activity of CN on the RII phosphopeptide substrate,[2],(but not its mutant version)
